Test results from US20260008864A1.

Assays:
[1] = target: CD3 on cells (PBMC, primary patient samples); test: flow cytometry on a primary patient sample, control panel: CD3-V450 staining is kept (reference for the bionic panel)
[2] = target: CD3 on cells (PBMC, primary patient samples); test: flow cytometry, PBMC treated with C-IgG, dot plot CD38-PE against CD3-V450; reference panel for the treated samples; unstained panel: CD3 0%

% CD3-V450 stained cells (control panel) [1]: 25%
CD3 (% of PBMC in the CD3-V450 positive, CD38-PE negative quadrant) [2]: 25%
Substance: non-binding IgG antibody
